Experimental data reported in PMC9516175.

system: VIRP1 (Arabidopsis thaliana); assay: EMSA

Substance	binding signal (% of WT shifted)
Q-satRNA WT	100
HSVd WT	100
PSTVd WT	100
